From ChEMBL document CHEMBL1255351, “Biochemical characterization of metallo-beta-lactamase VIM-11 from a Pseudomonas aeruginosa clinical strain” (2008)
Values after ≈ are worked out from the molar mass of the structure shown.

Legend:
Escherichia coli [1] = test: Antimicrobial activity Escherichia coli DH5alpha expressing metallo-beta-lactamase VIM-11 by agar macrodilution method; assay type: functional
Escherichia coli [2] = test: Antimicrobial activity Escherichia coli DH5alpha expressing beta lactamase VIM-2 by agar macrodilution method; assay type: functional
Pseudomonas aeruginosa = test: Ratio of Kcat to Km for Pseudomonas aeruginosa COL-1 metallo-beta lactamase VIM-2 over Kcat to Km for Pseudomonas aeruginosa M5109 metallo-beta-lactamase VIM-11
Escherichia coli [3] = test: Antimicrobial activity Escherichia coli DH5alpha harboring bacteriophage T4 plasmid alpha omega by agar macrodilution method; assay type: functional
[4] = tested on: CC(C)(O/N=C(\C(=O)N[C@@H]1C(=O)N2C(C(=O)[O-])=C(C[n+]3ccccc3)CS[C@H]12)c1csc(N)n1)C(=O)O; test: (§1) Activity at Pseudomonas aeruginosa M5109 metallo-beta-lactamase VIM-11 by spectrometry
[5] = tested on: CC(=O)OCC1=C(C(=O)O)N2C(=O)[C@@H](NC(=O)Cc3cccs3)[C@H]2SC1; test: as §1
[6] = tested on: CC1(C)S[C@@H]2[C@H](NC(=O)[C@H](N)c3ccccc3)C(=O)N2[C@H]1C(=O)O; test: as §1
[7] = tested on: CO[C@@]1(NC(=O)Cc2cccs2)C(=O)N2C(C(=O)O)=C(COC(N)=O)CS[C@@H]21; test: as §1
[8] = tested on: O=C(Cc1cccs1)N[C@@H]1C(=O)N2C(C(=O)O)=C(/C=C/c3ccc([N+](=O)[O-])cc3[N+](=O)[O-])CS[C@H]12; test: as §1
[9] = tested on: CO/N=C(\C(=O)N[C@@H]1C(=O)N2C(C(=O)O)=C(COC(N)=O)CS[C@H]12)c1ccco1; test: as §1
[10] = tested on: C[C@@H](O)[C@H]1C(=O)N2C(C(=O)O)=C(S[C@@H]3CN[C@H](C(=O)N(C)C)C3)[C@H](C)[C@H]12; test: as §1
[11] = tested on: CO/N=C(\C(=O)N[C@@H]1C(=O)N2C(C(=O)O)=C(COC(C)=O)CS[C@H]12)c1csc(N)n1; test: as §1
[12] = tested on: CO/N=C(\C(=O)N[C@@H]1C(=O)N2C(C(=O)[O-])=C(C[n+]3cccc4c3CCC4)CS[C@H]12)c1csc(N)n1; test: as §1
[13] = tested on: CC(C)(O/N=C(\C(=O)N[C@@H]1C(=O)N2C(C(=O)[O-])=C(C[n+]3ccccc3)CS[C@H]12)c1csc(N)n1)C(=O)O; test: (§2) Ratio of Kcat to Km for Pseudomonas aeruginosa M5109 metallo-beta-lactamase VIM-11
[14] = tested on: CC(=O)OCC1=C(C(=O)O)N2C(=O)[C@@H](NC(=O)Cc3cccs3)[C@H]2SC1; test: as §2
[15] = tested on: CC1(C)S[C@@H]2[C@H](NC(=O)[C@H](N)c3ccccc3)C(=O)N2[C@H]1C(=O)O; test: as §2
[16] = tested on: CO[C@@]1(NC(=O)Cc2cccs2)C(=O)N2C(C(=O)O)=C(COC(N)=O)CS[C@@H]21; test: as §2
[17] = tested on: O=C(Cc1cccs1)N[C@@H]1C(=O)N2C(C(=O)O)=C(/C=C/c3ccc([N+](=O)[O-])cc3[N+](=O)[O-])CS[C@H]12; test: as §2
[18] = tested on: CO/N=C(\C(=O)N[C@@H]1C(=O)N2C(C(=O)O)=C(COC(N)=O)CS[C@H]12)c1ccco1; test: as §2
[19] = tested on: C[C@@H](O)[C@H]1C(=O)N2C(C(=O)O)=C(S[C@@H]3CN[C@H](C(=O)N(C)C)C3)[C@H](C)[C@H]12; test: as §2
[20] = tested on: CO/N=C(\C(=O)N[C@@H]1C(=O)N2C(C(=O)O)=C(COC(C)=O)CS[C@H]12)c1csc(N)n1; test: as §2
[21] = tested on: CO/N=C(\C(=O)N[C@@H]1C(=O)N2C(C(=O)[O-])=C(C[n+]3cccc4c3CCC4)CS[C@H]12)c1csc(N)n1; test: as §2

C[C@H]1[C@H](NC(=O)/C(=N\OC(C)(C)C(=O)O)c2csc(N)n2)C(=O)N1S(=O)(=O)O [AZTREONAM]
MIC (Escherichia coli [1]): 0.5 µg/mL (≈ 1.15 µM) | MIC (Escherichia coli [2]): 0.5 µg/mL (≈ 1.15 µM)

O=C(Cc1cccs1)N[C@@H]1C(=O)N2C(C(=O)O)=C(/C=C/c3ccc([N+](=O)[O-])cc3[N+](=O)[O-])CS[C@H]12
kcat/Km ratio (Pseudomonas aeruginosa): 1.06

CO[C@@]1(NC(=O)Cc2cccs2)C(=O)N2C(C(=O)O)=C(COC(N)=O)CS[C@@H]21 [CEFOXITIN]
kcat/Km ratio (Pseudomonas aeruginosa): 0.86 | MIC (Escherichia coli [1]): 32 µg/mL (≈ 74.9 µM) | MIC (Escherichia coli [2]): 64 µg/mL (≈ 150 µM) | MIC (Escherichia coli [3]): 4 µg/mL (≈ 9.36 µM)

Metallo-beta-lactamase VIM-11 (Pseudomonas aeruginosa) (from UniProt C7DTR7)
Km [4]: 110 µM | kcat [4]: 14 s⁻¹ | Km [5]: 4.5 µM | kcat [5]: 81 s⁻¹ | Km [6]: 109 µM | kcat [6]: 190 s⁻¹ | Km [7]: 7.4 µM | kcat [7]: 6.4 s⁻¹ | Km [8]: 8.2 µM | kcat [8]: 129 s⁻¹ | Km [9]: 5.5 µM | kcat [9]: 27 s⁻¹ | Km [10]: 22.7 µM | kcat [10]: 3.2 s⁻¹ | Km [11]: 11.4 µM | kcat [11]: 41.3 s⁻¹ | Km [12]: 183 µM | kcat [12]: 102 s⁻¹ | kcat/Km [13]: 1.3 ×10⁶ /M/s | kcat/Km [14]: 1.8 ×10⁶ /M/s | kcat/Km [15]: 1.8 ×10⁶ /M/s | kcat/Km [16]: 8.6 ×10⁶ /M/s | kcat/Km [17]: 1.6 ×10⁶ /M/s | kcat/Km [18]: 4.9 ×10⁶ /M/s | kcat/Km [19]: 1.4 ×10⁶ /M/s | kcat/Km [20]: 3.6 ×10⁶ /M/s | kcat/Km [21]: 5.6 ×10⁶ /M/s

CO/N=C(\C(=O)N[C@@H]1C(=O)N2C(C(=O)O)=C(COC(C)=O)CS[C@H]12)c1csc(N)n1 [CEFOTAXIME]
kcat/Km ratio (Pseudomonas aeruginosa): 0.78 | MIC (Escherichia coli [1]): 4 µg/mL (≈ 8.78 µM) | MIC (Escherichia coli [2]): 8 µg/mL (≈ 17.6 µM) | MIC (Escherichia coli [3]): 0.03 µg/mL (≈ 0.0659 µM)

CC1(C)S[C@@H]2[C@H](NC(=O)[C@H](N)c3ccccc3)C(=O)N2[C@H]1C(=O)O [AMPICILLIN]
kcat/Km ratio (Pseudomonas aeruginosa): 0.81 | MIC (Escherichia coli [1]): 64 µg/mL (≈ 183 µM) | MIC (Escherichia coli [2]): 256 µg/mL (≈ 733 µM) | MIC (Escherichia coli [3]): 8 µg/mL (≈ 22.9 µM)

CO/N=C(\C(=O)N[C@@H]1C(=O)N2C(C(=O)[O-])=C(C[n+]3cccc4c3CCC4)CS[C@H]12)c1csc(N)n1 [CEFPIROME]
kcat/Km ratio (Pseudomonas aeruginosa): 2 | MIC (Escherichia coli [1]): 0.5 µg/mL (≈ 0.972 µM) | MIC (Escherichia coli [2]): 0.25 µg/mL (≈ 0.486 µM) | MIC (Escherichia coli [3]): 0.015 µg/mL (≈ 0.0291 µM)
